# Reference: publication PMC3561395
# “And” between values parts separate entries of the source, which are not always exact repeats. Equal values may be shown once.
# Target: cytochrome c 552 from Thermus thermophilus HB8 (Thermus thermophilus HB8) (UniProt P04164)
# Chain of UniProt P04164 (P04164 whole entry): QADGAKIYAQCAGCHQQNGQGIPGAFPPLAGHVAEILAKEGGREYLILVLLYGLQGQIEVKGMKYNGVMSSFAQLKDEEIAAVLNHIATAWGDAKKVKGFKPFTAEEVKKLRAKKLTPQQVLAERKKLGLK
"forward rate constant kF of electron transfer with c 552, 4°C, ionic strength 12 mM","reverse rate constant kR of electron transfer with c 552, 4°C, ionic strength 12 mM",Substance
7e+07 M⁻¹ s⁻¹,7e+06 M⁻¹ s⁻¹ and 3e+06 M⁻¹ s⁻¹,recombinant cytochrome c 550 C-terminal domain (c 550[C]) (domain or fragment)
1e+08 M⁻¹ s⁻¹,–,recombinant cytochrome c 550 N-terminal domain (c 550[N]) (domain or fragment)
